According to article PMC9365860 (Cell Reports, 2022):

Biological target: Recombinant stabilized SARS-CoV-2 spike for ELISA (Wuhan) (SARS-CoV-2, Wuhan, UniProt P0DTC2, stabilised)
Test: ELISA
Conditions: both partners purified

B1: P008_60 IgG (antibody, V domains shown)
VH: EVQLVESGGGVVQPGRSLRLTCAASGFIFSSYGMHWVRQAPGKGLEWVAVISYDGSYKYYADSVKGRFTISRDNSKNTLYLQMNSLRAEDTAVYYCTKADYYDFWSGYQKTYYYYMDVWGKGTTVTISS
VL: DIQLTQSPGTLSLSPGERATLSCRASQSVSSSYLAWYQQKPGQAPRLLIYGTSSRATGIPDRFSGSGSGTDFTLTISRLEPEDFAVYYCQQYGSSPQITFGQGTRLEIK
notes: also called mAb P008_60; P008_060; source: HEK-293F, co-transfected heavy and light plasmids, purified (protein G)
binding result: binds
